Measured values from US20120034671A1 (RESEARCH FOUNDATION OF THE CITY UNIVERSITY OF NEW YORK, published 2012).

Target: the molecule itself
Test: self-association (homodimerization), observed with NMR (FIG. 3A-3C)

B1: HP-7 polypeptide (SEQ ID NO: 7) (peptide)
chain: GEIWKQHEDALQKFEEALNQFEDLKQLGGSGCGSGGEIWKQHEDALQKFEEALNQFEDLKQL
notes: also called free HP-7
- binding result: binds
